From patent US20140370037A1 (published 2014)
Positions count from the first letter of the chain named.

T1: human DLL3 antigen (human, UniProt Q9NYJ7 27-492, limits assumed)
T1 construct: also called immobilized human DLL3; recombinant human DLL3
T1 sequence (looked up): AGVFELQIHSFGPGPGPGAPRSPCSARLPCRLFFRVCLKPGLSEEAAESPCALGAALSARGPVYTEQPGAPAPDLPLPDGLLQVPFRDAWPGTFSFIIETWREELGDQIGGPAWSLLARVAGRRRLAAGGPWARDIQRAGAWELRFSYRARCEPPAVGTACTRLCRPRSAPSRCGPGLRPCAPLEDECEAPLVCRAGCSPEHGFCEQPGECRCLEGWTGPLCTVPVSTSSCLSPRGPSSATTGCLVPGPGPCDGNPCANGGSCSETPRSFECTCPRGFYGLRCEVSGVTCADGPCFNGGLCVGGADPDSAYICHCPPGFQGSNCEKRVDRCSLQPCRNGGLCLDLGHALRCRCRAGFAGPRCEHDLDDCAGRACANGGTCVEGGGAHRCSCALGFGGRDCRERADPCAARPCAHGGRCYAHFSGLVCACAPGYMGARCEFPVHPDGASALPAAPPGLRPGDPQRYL

B1: SC16.3 (antibody, V domains shown)
VH: QVTLKESGPGILQPSQTLSLTCSFSGFSLSTSGMGVGWIRQPSGKGLEWLAHIWWDDVKRYNPALKSRLTISKDTSSSQVFLKIASVDTADTATYYCARIADYGGDYYAMDYWGQGTSVTVSS
VL: QIVLTQSPAIMSVSLGERVTMTCTASSSVSSSYLHWYQQKPGSSPKLWIYSTSNLASGVPARFSGSGSGTSYFFTISSMEAEDAATYYCHQYHRSPFTFGAGTKLKIR
notes: murine mAb; also called mAb SC16.3
B2: SC16.18 (antibody, V domains shown)
VH: EVKLEESGGGLVQPGESMKLSCAASGFTFSDAWMDWVRQSPEKGLEWVAEIRNKANNHATYYAESVKGKFTISRDDSKSRVYLQMNNLRAADTGIYYCTAYSNFAYWGQGTLVTVST
VL: DIQMTQTTSSLSASLGDRVTISCRASQNIINYLNWYQQKPDGTVKLLIYYTSRLHSGVPSRFSGSGSGTDYSLTISNLEPEDIATYYCQQYSERPYTFGGGTKLEIKR
notes: murine mAb
B3: SC16.41 (antibody, V domains shown)
VH: B2 VH with P14F, E16G, A63P, K69R, A91E, A100G, N103S, T117A
VL: B2 VL with N28D, I29V, G68R
notes: murine mAb
B4: SC16.19 (antibody, V domains shown)
VH: EVQLQQSGAELVRPGASVKLSCTASGFNIKDSLLHWVKQRPEKGLEWIGWIDPEDGETKYAPNFQDKATITTDSSSNTAYLQLISLTSVDTAIYYCAYGNYVRHFDYWGQGTTLTVSS
VL: DIQMTQSPSSLSASLGGKVTFTCKASQDIHKYVAWYQHKPGKGPRLLIHYTSTLQPGISSRFSGSGSGRDYSFSISNLEPEDIATYYCLQYNNLYTFGGGTKLEIKR
notes: murine mAb
B5: SC16.20 (antibody, V domains shown)
VH: QVQLQQSGTELVRPGTSVRVSCKASGYAFGNHLIEWVKQRPGQGLEWIGVINPGTGGTHYNEKFKDKARLTADKSSNTAYMHLNSLTSDDSAVYFCARSPYDYHEGAMDYWGQGTSVTVSS
VL: EIQMTQSPSSMSASLGDRITITCQATQDIVKNLNWYQQKPGKPPSFLIYYATELAEGVPSRFSGSGSGSDYSLTIRNLESEDFADHYCLQFYEFPFTFGAGTKLELK
notes: murine mAb
B6: SC16.21 (antibody, V domains shown)
VH: QVQLQQSGPELVKPGASVKISCKASGYAFSSSWMNWVKQRPGKGLEWIGRIYPGDGDTNYNGKFKGKATLTADKSSSTAYMQLSSLTSEDSAVYFCAMGIYNYDGSRYYSMDYWGQGTSVTVSS
VL: DIVMTQSPSSLAMSVGQKVTMSCKSSQSLLNSSNQKNYLAWYQQEPGQSPKLLVSFASTRESGVPDRFTGSGSGTDFTLTISGVQAEDLAVYYCQQHYSIPLTFGAGTKLELK
notes: murine mAb
B7: SC16.22 (antibody, V domains shown)
VH: QVQLQQPGAELVKPGASVKLSCKASGYTFTTYWMHWVKQRPGQGLEWIGEIDPSDSYTYYNQKFKGKATLTVDKSSSTAYMQLSSLTSEDSAVYYCARGDYGNPYAMDYWGQGSSVTVSS
VL: DIQMTQTTSSLSASLGDRVTISCRASQDIKNYLNWYQQKPDGTVKPLIYYTSRVHSGVPSRFSGSGSGTDYSLTISNLEQEDIATYFCQQGYTLPFTFGSGTKLE
notes: murine mAb
B8: SC16.23 (antibody, V domains shown)
VH: QVTLKESGPGILQPSQTLSLTCSFSGFSLSTSNTGIGWIRQPSGTGLEWLAHIWWNDDKYYNPSLKSRLTISKETSNNQVFLKITNVDTADTASYFCVQIGRDYSNYAWYFDVWGAGTTVTVSS
VL: QIVLTQSPAIMSASPGEKVTLTCSASSSVSSRYLYWYQQKPGSSPKLWIYSTSNLASGVPARFSGSGSGTSYSLIISSMEAEDAASYFCHQWSNYPLTFGAGTKLELK
notes: murine mAb
B9: SC16.5 (antibody, V domains shown)
VH: QVTLKESGPGILQPSQTLSLTCSFSGFSLSTSGMGVGWIRQPSGEGLEWLADIWWDDNKYYNPSLKSRLTISKDTSSNQVFLKITSVDTADTATYYCARRVNYVYDPYYAMDYWGQGTSVTVSS
VL: QIVLTQSPAIMSASPGEKVTMTCSASSSVSYMHWYQQKSGTSPKRWIYDTSKLASGVPARFSGSGSGTSYSLTISSMEAEDAATYYCQQWTRNPLTFGAGTKLELK
notes: murine mAb
B10: SC16.25 (antibody, V domains shown)
VH: B9 VH with A51T, K83N, V104Y
VL: B9 VL with T50S, T91S, R92S
notes: murine mAb
B11: SC16.26 (antibody, V domains shown)
VH: QIQLVQSGPELKKPGETVKISCKASGYSFTDYSMHWVKQAPGKGLKWMGWINTETVEPTYADDFMGRFAFSLETSASTAFLQINNLENEDTATYFCARFGSYAMDYWGQGTS
VL: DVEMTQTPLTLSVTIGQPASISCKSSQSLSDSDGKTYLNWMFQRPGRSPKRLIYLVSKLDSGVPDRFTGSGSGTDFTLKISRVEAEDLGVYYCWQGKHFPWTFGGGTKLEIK
notes: murine mAb
B12: SC16.29 (antibody, V domains shown)
VH: QVQLQQSGAELARPGASVKLSCKASGYTFTDQYINWVKQRTGQGLEWIGEIYPGRGNTYYNEKFKGKATLTADKSSSTAYMQLSSLTSEDSAVYFCAREDGGYDDAWFAYWGQGTLVTVSA
VL: QIVLTQSPAIMSASPGEKVTITCSASSSVSYMHWFQQKPGTSPKLWIYTTSNLASGVPARFSGSGSGTSYSLTVSRMEAEDAATYYCQQRSLYPYTFGGGTKVEIK
notes: murine mAb
B13: SC16.30 (antibody, V domains shown)
VH: QVTLKESGPGILQPSQTLSLTCSFSGFSLSTSGMGVGWIRQPSGKGLEWLAHIWWDDVKRYKPALKSRLTVSKDTSSNQVFLKIATVDAADTGTYYCARIVDGHPPFAYWGQGTLVTVSA
VL: B1 VL with A9T, V13A, S30T, F73S, F74L, Y92F, A101S, K106E, R108K
notes: murine mAb
B14: SC16.4 (antibody, V domains shown)
VH: QIQLVQSGPELKKPGETVKISCKASGYTFTDYSMHWVKQAPGKGLKWMGWINTETGEPGYADDFKGRFAFSLETSASTAYLQINNLKNEDTATYFCARYDGYAMDYWGQGTSVTVSS
VL: DIQMTQTTSSLSASLGDRVTISCRASQDISNYLNWYQQKPDGTVKLLIYYTSRLHSGVPSRFSGSGSGTDYSLTISNLELEDIATYFCQQGDMLPWTFGGGTKLEIK
notes: murine mAb; also called mAb SC16.4
B15: SC16.34 (antibody, V domains shown)
VH: QIQLVQSGPELKRPGETVKISCKASGYTFTNYGMNWVKQAPGKGLKWMGWINTYTGDPTYADDFKGRFAFSLETSASTAYLQINNLKNEDTATYFCARIGGNSPSDYWGQGTSLTVSS
VL: SIVMTQTPKFLLVSAGDRVTITCKASQSVSNDVAWYQQKPGQSPKLLIYYASNRYSGVPDRFTGSGYGTDFTFTISTVQAEDLAVYFCQQDYSSPWTFGGGTKLEIK
notes: murine mAb
B16: SC16.35 (antibody, V domains shown)
VH: DVQLQESGPGLVKPSQSLSLTCTVTGYSITSDYAWNWIRQFPGNKLEWMGYISYSGSTSYNPSLKSRISITRDTSKNQFFLQLNSVTTEDTATYYCARFYYGSSYAMDYWGQGTSVTVSS
VL: B14 VL with L80Q, D92N, M93T, W96Y
notes: murine mAb
B17: SC16.36 (antibody, V domains shown)
VH: QVQLQQSGAELAKPGASVKMSCKASGYTFTTYWMHWVKQRPGQGLEWIGYINPSSGYTEYNQKFKDKATLTADKSSSTAYMQLSSLTSEDSSVYYCARKGSNRGFAYWGQGTLVTVS
VL: ETTVTQSPASLSVTTGEKVTIRCITTPDIDDDMNWYQQKPGEPPNLLISEGNSLRPGVPSRFSSSGYGTNFVFTIENTLSEDVADYYCLQSDNMPFTFGSGTKLEIK
notes: murine mAb
B18: SC16.38 (antibody, V domains shown)
VH: EVQLQQSGAELVKPGASVKLSCTVSGFNIKDTYIHWVKQRPEQGLEWIGRIDPANGNTKYDPKFQGKATITADTSSNTAYLQLSSLTSEDTAVYYCARPTGYFEYWGQGTTLTVSS
VL: QIVLTQSPAIMSASPGEKVTMTCSASSSINYMHWYQQKPGTSPKRWIYDTSKLASGVPARFSGSGSGTSYSLTISSMEAEDAATYYCHQRSTWTFGGGTKLEIK
notes: murine mAb
B19: SC16.42 (antibody, V domains shown)
VH: QIQLVQSGPELKKPGETVKISCKASGYTFTTAGMQWVQKMPGKGFKWIGWINTHSGEPKYADDFKGRFAFSLETSASTAYLQISNLKDEDTATFFCAPLWSDSSFAYWGQGTLVTVSA
VL: DVLMTQSPLSLSVSLGDQASISCRSSQNIVHSDRYTYLEWYLQKPGQSPKLLIYGVSNRFSGVPDRFSGSGSGTDFTLKISRVEAEDMGVYYCFQGTHVPYTFGGGTKLEIK
notes: murine mAb
B20: SC16.45 (antibody, V domains shown)
VH: QVQLQQSGADLVRPGTSVKVSCKASGYSFTNYLIEWVKQRPGQGLEWIGVINPGSGGTHYNEKFKDKAVLTADKSSTTAHMQLSSLTSDDSAVYFCARSPYDYNDGAMDYWGQGTSVTVSS
VL: B5 VL with S60A, R76S, H86Y, Y87H
notes: murine mAb
B21: SC16.47 (antibody, V domains shown)
VH: EVQLQQSGPELVKPGASVKISCKASGYSFSRFYMHWVKQSPENSLEWIGEINPSTGGTSYNQKFKGKATLTVDKSSSTAYMQLKSLTSEESAVYYCTRGYGSNCYFDVWGAGTTVTVST
VL: DVVLTQSPLSLPVNIGDQASISCKSTKSLLNSDGFTYLDWYLQRPGQSPQFLIYLVSNRFSGVPDRFSGSGSGTDFTLKISRVEAEDLGVYYCFQSNYLPLTFGAGTKLELR
notes: murine mAb
B22: SC16.49 (antibody, V domains shown)
VH: QVQLQQSGPELVKPGTLVKISCKASGYTFTSYDINWVKQRPGQGLEWIGWIYPGDGNTKYSEKFKGKATLTADKSSSTAYMQLTSLTSENSAVYFCARDYDYPFAYWGQGTLVTVSA
VL: DIKMTQSPSSMYASLGERVTITCKASQDINSYLSWFQQKPGKSPKTLIYRANRLVDGVPSRFSGSGSGQDYSLTITSLEYEDMGIYYCLQYDEFPLTFGAGTKLELK
notes: murine mAb

Molecular target: T1, human DLL3 antigen
Experiment: ELISA or flow cytometry screen

Row | Binder | binding result
1 | B1 | binds
2 | B2 | binds
3 | B3 | binds
4 | B4 | binds
5 | B5 | binds
6 | B6 | binds
7 | B7 | binds
8 | B8 | binds
9 | B9 | binds
10 | B10 | binds
11 | B11 | binds
12 | B12 | binds
13 | B13 | binds
14 | B14 | binds
15 | B15 | binds
16 | B16 | binds
17 | B17 | binds
18 | B18 | binds
19 | B19 | binds
20 | B20 | binds
21 | B21 | binds
22 | B22 | binds
